Tests used:
[1] = target: T1, AhR (human) alone (Homo sapiens, UniProt P35869 SEQ:1-848); assay: EMSA; no binding without ARNT; conditions: label: 32P end-label; 5' TCGA overhangs
T1 chain: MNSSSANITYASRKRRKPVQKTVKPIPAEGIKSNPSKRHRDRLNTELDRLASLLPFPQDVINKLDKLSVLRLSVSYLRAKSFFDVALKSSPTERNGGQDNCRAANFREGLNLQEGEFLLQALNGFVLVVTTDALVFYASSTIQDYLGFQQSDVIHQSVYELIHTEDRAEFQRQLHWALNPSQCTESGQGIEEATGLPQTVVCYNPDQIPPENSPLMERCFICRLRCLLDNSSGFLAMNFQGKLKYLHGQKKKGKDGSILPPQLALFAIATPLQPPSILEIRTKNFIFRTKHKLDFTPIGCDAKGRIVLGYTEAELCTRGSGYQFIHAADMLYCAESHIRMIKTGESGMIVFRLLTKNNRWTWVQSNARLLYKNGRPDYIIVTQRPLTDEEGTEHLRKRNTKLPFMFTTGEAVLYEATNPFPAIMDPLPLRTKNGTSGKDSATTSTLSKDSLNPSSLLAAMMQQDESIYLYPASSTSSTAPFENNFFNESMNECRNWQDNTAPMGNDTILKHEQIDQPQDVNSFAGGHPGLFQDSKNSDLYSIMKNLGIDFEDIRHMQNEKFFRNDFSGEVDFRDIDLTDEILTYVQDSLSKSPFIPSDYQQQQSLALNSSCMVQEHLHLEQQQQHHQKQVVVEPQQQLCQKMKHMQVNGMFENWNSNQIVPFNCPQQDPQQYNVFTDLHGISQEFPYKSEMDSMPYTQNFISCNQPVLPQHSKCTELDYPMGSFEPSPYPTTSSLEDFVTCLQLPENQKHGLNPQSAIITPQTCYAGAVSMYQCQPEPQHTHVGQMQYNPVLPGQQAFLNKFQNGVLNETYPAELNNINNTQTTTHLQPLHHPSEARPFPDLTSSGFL
Method: (§1) A complementary pair of synthetic oligonucleotides, 5'-[…]-3' Sequence ID. No. 16 and 5'-TCGAGCTGGGC-CCATTGCGTGATCTAC-3' Sequence ID. No. 17 (containing DRE3) were annealed and end-labeled with gamma ^32P-labeled deoxyadenosine triphosphate as described. Sambrook, J., Fritsch, E. F., Maniatis, T., *Molecular Cloning: A Laboratory Manual/second edition* (Cold Spring Harbor Laboratory Press, 1989). Cytosolic extracts (35 μg of protein) obtained from either human SCC cells or murine Hepa 1c1c7 cells (From James P. Whitlock Jr.) were incubated in the presence of DMSO (−) or 20 nM TCDD (+) for 2 hours at either room temperature (human) or 30° (murine). Nonspecific competitor, poly dIdC, was added and incubated 15 minutes at room temperature. The radiolabeled probe was then added and incubated 15 minutes at room temperature followed by nondenaturing gel electrophoresis. In vitro translated human AhR and ARNT proteins were incubated with either DMSO (−) or 20 nM TCDD (+) for 2 hours at room temperature followed by gel shift assays as described above. In vitro translated mouse AhR and humanARNT proteins were incubated with either DMSO (−) or 20 nM TCDD (+) for 2 hours at 30° followed by electrophoretic mobility shift assays.

[2] = target: ARNT alone (Homo sapiens, UniProt P27540 P27540:1-789); assay: EMSA; no binding without AhR; conditions: label: 32P end-label; 5' TCGA overhangs
Method: as §1

[3] = target: AhR-ARNT heterodimer (human AhR + human ARNT) (Homo sapiens, UniProt P35869;P27540 P35869:1-848,P27540:1-789); assay: EMSA; 20 nM TCDD, 2 h room temperature; poly dIdC; ligand dependent; conditions: tags: reticulocyte lysate TNT; label: 32P end-label; 5' TCGA overhangs
Method: as §1

[4] = target: AhR-ARNT heterodimer (mouse AhR + human ARNT) (Mus musculus / Homo sapiens, UniProt P30561;P27540 P30561:1-805,P27540:1-789); assay: EMSA; 20 nM TCDD, 2 h 30 C; poly dIdC; ligand dependent; conditions: tags: reticulocyte lysate TNT; label: 32P end-label; 5' TCGA overhangs
Method: as §1

AhR-ARNT heterodimer (human AhR + human ARNT), sequence (P27540 whole entry, one chain of several): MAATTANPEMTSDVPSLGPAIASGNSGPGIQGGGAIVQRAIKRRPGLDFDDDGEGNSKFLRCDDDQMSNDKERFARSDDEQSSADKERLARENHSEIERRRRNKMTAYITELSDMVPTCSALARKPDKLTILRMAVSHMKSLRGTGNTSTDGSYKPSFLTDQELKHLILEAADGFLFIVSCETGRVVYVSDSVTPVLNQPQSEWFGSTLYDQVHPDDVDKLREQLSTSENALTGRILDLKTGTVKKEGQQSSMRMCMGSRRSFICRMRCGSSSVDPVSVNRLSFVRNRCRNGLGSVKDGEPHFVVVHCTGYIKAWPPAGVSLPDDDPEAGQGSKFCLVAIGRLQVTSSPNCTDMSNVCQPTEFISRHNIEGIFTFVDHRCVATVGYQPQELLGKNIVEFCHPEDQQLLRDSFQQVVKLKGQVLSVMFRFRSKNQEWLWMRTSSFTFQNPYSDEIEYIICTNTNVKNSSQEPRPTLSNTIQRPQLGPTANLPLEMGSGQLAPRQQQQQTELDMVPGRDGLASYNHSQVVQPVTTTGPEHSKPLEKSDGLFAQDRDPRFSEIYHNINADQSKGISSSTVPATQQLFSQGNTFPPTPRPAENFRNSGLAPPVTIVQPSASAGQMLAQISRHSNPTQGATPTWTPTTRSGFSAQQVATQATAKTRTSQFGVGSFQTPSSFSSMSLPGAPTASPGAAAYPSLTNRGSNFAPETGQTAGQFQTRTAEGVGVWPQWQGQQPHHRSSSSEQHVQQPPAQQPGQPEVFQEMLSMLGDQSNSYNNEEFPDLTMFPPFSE
ARNT alone, sequence (P27540 whole entry, one chain of several): as above
AhR-ARNT heterodimer (mouse AhR + human ARNT), sequence (P30561 1-805, chain 1 of 2): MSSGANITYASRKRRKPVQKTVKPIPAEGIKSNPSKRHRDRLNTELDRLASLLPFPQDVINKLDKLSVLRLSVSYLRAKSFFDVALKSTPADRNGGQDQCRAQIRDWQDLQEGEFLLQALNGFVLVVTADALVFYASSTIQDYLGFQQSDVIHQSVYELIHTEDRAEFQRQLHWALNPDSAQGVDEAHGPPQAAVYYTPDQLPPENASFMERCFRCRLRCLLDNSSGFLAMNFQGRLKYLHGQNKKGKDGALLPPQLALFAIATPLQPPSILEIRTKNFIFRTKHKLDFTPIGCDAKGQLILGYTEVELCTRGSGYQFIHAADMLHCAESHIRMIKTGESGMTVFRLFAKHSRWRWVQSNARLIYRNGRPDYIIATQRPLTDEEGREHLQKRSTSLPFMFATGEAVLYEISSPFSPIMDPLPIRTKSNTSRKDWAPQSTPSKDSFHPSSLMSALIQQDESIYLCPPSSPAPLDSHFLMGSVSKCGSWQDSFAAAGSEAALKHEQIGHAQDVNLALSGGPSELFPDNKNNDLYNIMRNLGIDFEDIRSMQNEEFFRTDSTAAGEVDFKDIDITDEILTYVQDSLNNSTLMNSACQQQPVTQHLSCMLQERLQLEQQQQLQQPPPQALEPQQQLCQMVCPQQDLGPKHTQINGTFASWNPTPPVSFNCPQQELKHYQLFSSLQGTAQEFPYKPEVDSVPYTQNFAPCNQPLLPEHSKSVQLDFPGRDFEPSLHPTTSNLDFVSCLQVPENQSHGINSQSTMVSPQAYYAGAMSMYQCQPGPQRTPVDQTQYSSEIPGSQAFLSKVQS
AhR-ARNT heterodimer (mouse AhR + human ARNT), sequence (P27540 whole entry, chain 2 of 2): as the sequence (P27540 whole entry, one chain of several) above

B1: DRE3 (dsDNA)
DNA 1: TCGAGTAGATCACGCAATGGGCCCAGC
DNA 2: TCGAGCTGGGCCCATTGCGTGATCTAC
binding result [1]: no binding
binding result [2]: no binding
binding result [3]: binds
binding result [4]: binds

— patent publication US5378822, “Nucleic acids encoding murine and human Ah receptors” (Wisconsin Alumni Research)
